Laboratory results as given in PMC4018492 (Genes & Development, 2014).
One block for each binder: values may come before it.

Experiments:
WDR5_(23–334) [1] = target: T1, WDR5_(23–334) (human, UniProt P61964 23-334); assay: SEC
WDR5_(23–334) [2] = target: T1, WDR5_(23–334); assay: ITC
[3] = target: 6xHis-WDR5 (residues 23–334) (human, UniProt P61964 23-334); assay: pull-down

binding result (WDR5_(23–334) [1]): binds
B1: KANSL2_(381–492) (domain or fragment)
chain: DDLEAGPMDLYLSAAELQPTESLPLEFSDDLDVVGDGMQCPPSPLLFDPSLTLEDHLVKEIAEDPVDILGQMQMAGDGCRSQGSRNSEKASAPLSQSGLATANGKPEPTSIS

Kd (WDR5_(23–334) [2]): 180 nM
B2: KANSL1 WIN motif-containing peptide (585-DGTCVAARTRPVLS-598-Y) (peptide)
peptide: DGTCVAARTRPVLSY

binding result [3]: binds
B3: KANSL1_(537–773) (domain or fragment)
chain: KSCGALRPVNGVINTLQPVLADHIPGDSSDAEEQLHKKQRLNLVSSSSDGTCVAARTRPVLSCKKRRLVRPNSIVPLSKKVHRNSTIRPGCDVNPSCALCGSGSINTMPPEIHYEAPLLERLSQLDSCVHPVLAFPDDVPTSLHFQSMLKSQWQNKPFDKIKPPKKLSLKHRAPMPGSLPDSARKDRHKLVSSFLTTAKLSHHQTRPDRTHRQHLDDVGAVPMVERVTAPKAERLLN
